Here are results for two molecules from article doi:10.1101/2021.10.29.466484, “Clamping of DNA shuts the condensin neck gate” (bioRxiv, 2021).

Sequences and labels used below:
T1: Smc4 (S. cerevisiae, UniProt Q12267 1-1418)
T1 construct: Smc4, SMC subunit of budding yeast (S. cerevisiae) condensin, wild type; Only the head domain and proximal coiled coil are resolved in the maps; also called SMC4-3xStrepII
T1 sequence: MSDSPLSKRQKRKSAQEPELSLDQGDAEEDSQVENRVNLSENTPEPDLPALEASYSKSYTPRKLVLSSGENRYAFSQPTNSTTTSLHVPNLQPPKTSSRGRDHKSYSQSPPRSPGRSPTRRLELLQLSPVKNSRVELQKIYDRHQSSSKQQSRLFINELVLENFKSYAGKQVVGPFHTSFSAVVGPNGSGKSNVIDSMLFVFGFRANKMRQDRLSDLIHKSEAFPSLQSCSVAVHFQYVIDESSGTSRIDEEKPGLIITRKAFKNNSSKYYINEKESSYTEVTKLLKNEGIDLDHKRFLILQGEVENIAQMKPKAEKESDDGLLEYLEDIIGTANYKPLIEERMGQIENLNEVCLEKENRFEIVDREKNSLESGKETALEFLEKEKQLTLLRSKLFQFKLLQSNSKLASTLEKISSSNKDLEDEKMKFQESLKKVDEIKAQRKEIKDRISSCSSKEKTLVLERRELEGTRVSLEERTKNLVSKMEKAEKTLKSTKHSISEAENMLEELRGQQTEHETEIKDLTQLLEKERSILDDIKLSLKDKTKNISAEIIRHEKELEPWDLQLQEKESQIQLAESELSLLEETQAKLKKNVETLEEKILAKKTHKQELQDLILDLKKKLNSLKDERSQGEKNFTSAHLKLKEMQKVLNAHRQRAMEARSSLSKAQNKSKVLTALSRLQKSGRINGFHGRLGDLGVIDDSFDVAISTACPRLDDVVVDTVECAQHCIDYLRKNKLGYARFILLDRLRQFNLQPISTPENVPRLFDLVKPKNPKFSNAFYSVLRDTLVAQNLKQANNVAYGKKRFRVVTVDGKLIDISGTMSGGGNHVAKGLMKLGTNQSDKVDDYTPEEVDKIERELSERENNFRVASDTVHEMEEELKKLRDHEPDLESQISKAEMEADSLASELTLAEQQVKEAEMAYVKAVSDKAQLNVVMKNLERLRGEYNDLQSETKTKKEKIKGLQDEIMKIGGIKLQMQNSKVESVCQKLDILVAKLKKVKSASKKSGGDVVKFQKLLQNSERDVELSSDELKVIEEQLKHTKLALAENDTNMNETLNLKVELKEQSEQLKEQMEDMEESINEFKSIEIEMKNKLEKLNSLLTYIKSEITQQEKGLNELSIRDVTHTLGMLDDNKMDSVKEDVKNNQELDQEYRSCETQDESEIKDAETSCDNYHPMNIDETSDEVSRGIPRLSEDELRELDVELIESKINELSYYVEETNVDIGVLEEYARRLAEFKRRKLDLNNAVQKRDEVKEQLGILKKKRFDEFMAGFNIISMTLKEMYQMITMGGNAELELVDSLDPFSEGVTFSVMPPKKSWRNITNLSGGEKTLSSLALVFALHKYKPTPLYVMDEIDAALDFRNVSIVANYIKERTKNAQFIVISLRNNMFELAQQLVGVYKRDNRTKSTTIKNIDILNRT

B1: Ycs4 (natural protein, S. cerevisiae)
chain: MSGFSLSEYLTKFQTTDRESYPRLQDPSRELNVIIDQLAVSPEQIDASPDSLEALIDLCHDFPHLTPKLQTQLSYLISSSLSNLSKDIKANLSSNVNFTEIGGLIPQWKRHLEEYGYLIQVLLTFLQDELHKVSSQSTNLNRSAKNSKNDSANVELFKRDCNQMENLLESITKLLEINLSKIFQTTPEKDLFIGLFTRPLFVLLEIEPVTKVSSLKMFIQRILAMCVKNHGQSSSIQSSLMTNLTYFLHLSVFNAELLKLLNDEYNYPQLTEDILKEISTRVFNAKDTTGPKAISNFLIKLSELSPGIMLRQMNLVITLLNNSSITLRCSVVEACGNIVAELAQDPQTMEHYKQQIAVLIELLEERFQDSNPYVRTKAIQGCSKICDLSSKFNKSKAKFTSLAVRSLQDRSSLVRRNSVKLLSKLLLKHPFKAIHGSQLRLSEWEEYLKGSESQLNSTLKKVESQETLNDTIERSLIEEEVEQDEGQCRTELEGSFNKSAELSRIENEVENINATNTSVLMKLKLMIVYYKDAISFIKEIHKSIELISNLLFSKNRNEVLESMDFLVLADAFDIELSEFGIKKMLHLVWMKGTNDEGTSISVHLIECYKQLFLTAPDSCNMQEKAAHIAKNLINLSIGASIADLASLEQLLGMMYEQKLIDQHVINILWAIYNSASKASMQKEQNVNNRDSEKGFSKEQIHGSIIILGMLSLADNEIALKGLESLLNIGLGAVGLKDLTLCRYSCLALERMVPKRSTIITKAINQELEDVAVKKLYAIIINYTKDNEYYPMCEQALSALFTISSKPDILATDLIREKTMMTFGKPEEEDSILSLEQSSRVVSLSQLLFIVGQVAIKTLVYLEKCEAEFKKRKIEAETRNGKVKNQGADVTNTTQDNGGDKELEMIGGTNEDDFTDAIQFVKENELLFGEKSILGKFCPIVEEIVSNSSRFSDPMLQRTATLCLEKLMCLSSKYCEKSLPLLITVMEKSPDPTIRSNAVLGLGDMAVCFNNLVDENTDYLYRRLHDENLMVQRTCLMTVTFLILAGQVKVKGQLGEMAKCLDNPDQGISDMCRLFFTELASKDNAIYNGFIDIFSNLSSDDLLGKESFKKIIKFLLTFIDKERHQKQLNEKLVGRLRKCETQKQWDDIAFVLNNLPYKNEDVTALLEQGFKVVSAKE
notes: Ycs4, HAWK subunit of budding yeast (S. cerevisiae) condensin, wild type
B2: Smc2 (natural protein, S. cerevisiae)
chain: MKVEELIIDGFKSYATRTVITDWDPQFNAITGLNGSGKSNILDAICFVLGIASMSTVRASSLQDLIYKRGQAGVTKASVTIVFDNTDKSNSPIGFTNSPQISVTRQVVLGGTSKYLINGHRAPQQSVLQLFQSVQLNINNPNFLIMQGKITKVLNMKPSEILSLIEEAAGTKMFEDRREKAERTMSKKETKLQENRTLLTEEIEPKLEKLRNEKRMFLEFQSTQTDLEKTERIVVSYEYYNIKHKHTSIRETLENGETRMKMLNEFVKKTSEEIDSLNEDVEEIKLQKEKELHKEGTISKLENKENGLLNEISRLKTSLSIKVENLNDTTEKSKALESEIASSSAKLIEKKSAYANTEKDYKMVQEQLSKQRDLYKRKEELVSTLTTGISSTGAADGGYNAQLAKAKTELNEVSLAIKKSSMKMELLKKELLTIEPKLKEATKDNELNVKHVKQCQETCDKLRARLVEYGFDPSRIKDLKQREDKLKSHYYQTCKNSEYLKRRVTNLEFNYTKPYPNFEASFVHGVVGQLFQIDNDNIRYATALQTCAGGRLFNVVVQDSQTATQLLERGRLRKRVTIIPLDKIYTRPISSQVLDLAKKIAPGKVELAINLIRFDESITKAMEFIFGNSLICEDPETAKKITFHPKIRARSITLQGDVYDPEGTLSGGSRNTSESLLVDIQKYNQIQKQIETIQADLNHVTEELQTQYATSQKTKTIQSDLNLSLHKLDLAKRNLDANPSSQIIARNEEILRDIGECENEIKTKQMSLKKCQEEVSTIEKDMKEYDSDKGSKLNELKKELKLLAKELEEQESESERKYDLFQNLELETEQLSSELDSNKTLLHNHLKSIESLKLENSDLEGKIRGVEDDLVTVQTELNEEKKRLMDIDDELNELETLIKKKQDEKKSSELELQKLVHDLNKYKSNTNNMEKIIEDLRQKHEFLEDFDLVRNIVKQNEGIDLDTYRERSKQLNEKFQELRKKVNPNIMNMIENVEKKEAALKTMIKTIEKDKMKIQETISKLNEYKRETLVKTWEKVTLDFGNIFADLLPNSFAKLVPCEGKDVTQGLEVKVKLGNIWKESLIELSGGQRSLIALSLIMALLQFRPAPMYILDEVDAALDLSHTQNIGHLIKTRFKGSQFIVVSLKEGMFANANRVFRTRFQDGTSVVSIM
notes: Smc2, SMC subunit of budding yeast (S. cerevisiae) condensin, wild type; Expressed from pGAL10-SMC2 together with the other subunits; Only the head domain and proximal coiled coil are resolved in the maps

Holding throughout (conditions): both partners purified
In experiment [1] the target is T1, Smc4. The experiment in a line: cryo-EM structure; condensin pentamer (Smc2, Smc4, Brn1, Ycs4, Ycg1) with 80 bp dsDNA, ADP and BeF3; separate maps of the head module and of Ycg1-DNA from one dataset.
Experiment [2] concerns the target T1, Smc4. Description: cryo-EM structure; condensin tetramer (Smc2, Smc4, Brn1, Ycs4) with 80 bp dsDNA, 5 mM ADP, 1 mM BeSO4, 10 mM NaF; TNT buffer (30 mM Tris/HCl, 60 mM NaCl, 1 mM TCEP, 2 mM MgCl2, pH 7.5); head module, Forms I and II.
Experiment [3] has as its target B1. Description: cryo-EM structure; condensin pentamer (Smc2, Smc4, Brn1, Ycs4, Ycg1) with 80 bp dsDNA, ADP and BeF3; separate maps of the head module and of Ycg1-DNA from one dataset.

B1: the binding result in experiment [1] is recorded as “binds”.
In the case of B2, the binding result in experiment [2] and in experiment [3] was “binds” throughout.
